± gives the standard deviation of the averaged measurements.
How the values were obtained:
[1] = tested on: hTERT-HMEC; assay: percentage of EdU-negative (G0-arrested) nuclei per well, 72 h; higher = more G0 arrest; details: reference: sequence is the full UniProt precursor, the tested protein was the secreted form or ectodomain
[2] = tested on: MCF7; assay: as above; details: reference: sequence is the full UniProt precursor, the tested protein was the secreted form or ectodomain
[3] = protein concentration 0.01925 µM
[4] = protein concentration 0.1925 µM
[5] = protein concentration 0.0225 µM
[6] = protein concentration 0.0115 µM
[7] = protein concentration 0.0357143 µM
[8] = protein concentration 0.357143 µM
[9] = protein concentration 0.0308571 µM
[10] = protein concentration 0.308571 µM
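Also: secreted proteins added to cultured cells, EdU pulse at the end, nuclei found by Hoechst imaging, EdU status from nuclear versus surrounding ring intensity ratio, PBS as neutral control.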

MARERPPGRGCGVLRRCLLGAVLLFGLRLCAELRRAGPGSPTRSAPPGPAWRPPGPHLPPAPGQPRGASRRQVTYVRSGRRAPPGGGGSGTPEPGCCAPRGRPRRKGPRWHIDLQPWAGSAQSLDEEAWRFLRYISTTQIACNHMNTDSLATDSSPTHKPWSVCLDDRFNLAHQIRNKQCRLYSLGLGSDDTHFEVSMANNGCEVHRFDPSVKSAHILESQHLWYHRLSIDWRDPHPAVAAQKPHSNTRKLGSILNEFGHHKIDVLKADLESAEWKVLENLILEDVLEQIGQLIFEIHLHWPGFEVSGSDSSVVRFWYSLLKELEQKDFRLFHSYKDLSKPQLFLKKDIFNASSCYTLSWVNTRWK [Q5JXM2]
percentage of EdU-negative ([1]; protein concentration 0.017 µM): 4.87 ± 0.35% | percentage of EdU-negative ([1]; protein concentration 0.17 µM): 10.9 ± 1.9% | percentage of EdU-negative ([2]; protein concentration 0.017 µM): 26.3 ± 1.3% | percentage of EdU-negative ([2]; protein concentration 0.17 µM): 28.6 ± 1.7%

MARFGLPALLCTLAVLSAALLAAELKSKSCSEVRRLYVSKGFNKNDAPLHEINGDHLKICPQGSTCCSQEMEEKYSLQSKDDFKSVVSEQCNHLQAVFASRYKKFDEFFKELLENAEKSLNDMFVKTYGHLYMQNSELFKDLFVELKRYYVVGNVNLEEMLNDFWARLLERMFRLVNSQYHFTDEYLECVSKYTEQLKPFGDVPRKLKLQVTRAFVAARTFAQGLAVAGDVVSKVSVVNPTAQCTHALLKMIYCSHCRGLVTVKPCYNYCSNIMRGCLANQGDLDFEWNNFIDAMLMVAERLEGPFNIESVMDPIDVKISDAIMNMQDNSVQVSQKVFQGCGPPKPLPAGRISRSISESAFSARFRPHHPEERPTTAAGTSLDRLVTDVKEKLKQAKKFWSSLPSNVCNDERMAAGNGNEDDCWNGKGKSRYLFAVTGNGLANQGNNPEVQVDTSKPDILILRQIMALRVMTSKMKNAYNGNDVDFFDISDESSGEGSGSGCEYQQCPSEFDYNATDHAGKSANEKADSAGVRPGAQAYLLTVFCILFLVMQREWR
percentage of EdU-negative [1, 3]: 4.9 ± 0.24% | percentage of EdU-negative [1, 4]: 4.77 ± 0.82% | percentage of EdU-negative [2, 3]: 26.5 ± 0.51% | percentage of EdU-negative [2, 4]: 29.9 ± 0.64%

MARFPKADLAAAGVMLLCHFFTDQFQFADGKPGDQILDWQYGVTQAFPHTEEEVEVDSHAYSHRWKRNLDFLKAVDTNRASVGQDSPEPRSFTDLLLDDGQDNNTQIEEDTDHNYYISRIYGPSDSASRDLWVNIDQMEKDKVKIHGILSNTHRQAARVNLSFDFPFYGHFLREITVATGGFIYTGEVVHRMLTATQYIAPLMANFDPSVSRNSTVRYFDNGTALVVQWDHVHLQDNYNLGSFTFQATLLMDGRIIFGYKEIPVLVTQISSTNHPVKVGLSDAFVVVHRIQQIPNVRRRTIYEYHRVELQMSKITNISAVEMTPLPTCLQFNRCGPCVSSQIGFNCSWCSKLQRCSSGFDRHRQDWVDSGCPEESKEKMCENTEPVETSSRTTTTVGATTTQFRVLTTTRRAVTSQFPTSLPTEDDTKIALHLKDNGASTDDSAAEKKGGTLHAGLIIGILILVLIVATAILVTVYMYHHPTSAASIFFIERRPSRWPAMKFRRGSGHPAYAEVEPVGEKEGFIVSEQC [Q6UX71]
percentage of EdU-negative [1, 5]: 4.63 ± 0.96% | percentage of EdU-negative ([1]; protein concentration 0.225 µM): 7.25 ± 1.4% | percentage of EdU-negative [2, 5]: 27.4 ± 2.7% | percentage of EdU-negative ([2]; protein concentration 0.225 µM): 26.561 ± 0.011%

MARFWVCVAGAGFFLAFLVLHSRFCGSPVLRNFTFAVSWRTEKILYRLDVGWPKHPEYFTGTTFCVAVDSLNGLVYIGQRGDNIPKILVFTEDGYFLRAWNYTVDTPHGIFAASTLYEQSVWITDVGSGFFGHTVKKYSSFGDLVQVLGTPGKKGTSLNPLQFDNPAELYVEDTGDIYIVDGDGGLNNRLIKLSQDFMILWLHGENGTGPAKFNIPHSVTLDSAGRVWVADRGNKRIQVFDKDTGEWLGAWNNCFTEEGPSSVRFTPDGKYLIVAQLNLSRLSVVAAPPVGSIGECSVISTIQLADQVLPHLLEVDRKTGAVYVAEIGAKQVQKYVPLNSYVPSFGS [Q5JS37]
percentage of EdU-negative [1, 6]: 4.82 ± 0.15% | percentage of EdU-negative ([1]; protein concentration 0.115 µM): 16.1 ± 0.13% | percentage of EdU-negative [2, 6]: 26.8 ± 0.58% | percentage of EdU-negative ([2]; protein concentration 0.115 µM): 29.3 ± 1.4%

MARGGRGRRLGLALGLLLALVLAPRVLRAKPTVRKERVVRPDSELGERPPEDNQSFQYDHEAFLGKEDSKTFDQLTPDESKERLGKIVDRIDNDGDGFVTTEELKTWIKRVQKRYIFDNVAKVWKDYDRDKDDKISWEEYKQATYGYYLGNPAEFHDSSDHHTFKKMLPRDERRFKAADLNGDLTATREEFTAFLHPEEFEHMKEIVVLETLEDIDKNGDGFVDQDEYIADMFSHEENGPEPDWVLSEREQFNEFRDLNKDGKLDKDEIRHWILPQDYDHAQAEARHLVYESDKNKDEKLTKEEILENWNMFVGSQATNYGEDLTKNHDEL
percentage of EdU-negative [1, 5]: 4.56 ± 0.49% | percentage of EdU-negative ([1]; protein concentration 0.225 µM): 6.14 ± 0.11% | percentage of EdU-negative [2, 5]: 22.7 ± 0.8% | percentage of EdU-negative ([2]; protein concentration 0.225 µM): 25.5 ± 0.44%

MARGSAVAWAALGPLLWGCALGLQGGMLYPQESPSRECKELDGLWSFRADFSDNRRRGFEEQWYRRPLWESGPTVDMPVPSSFNDISQDWRLRHFVGWVWYEREVILPERWTQDLRTRVVLRIGSAHSYAIVWVNGVDTLEHEGGYLPFEADISNLVQVGPLPSRLRITIAINNTLTPTTLPPGTIQYLTDTSKYPKGYFVQNTYFDFFNYAGLQRSVLLYTTPTTYIDDITVTTSVEQDSGLVNYQISVKGSNLFKLEVRLLDAENKVVANGTGTQGQLKVPGVSLWWPYLMHERPAYLYSLEVQLTAQTSLGPVSDFYTLPVGIRTVAVTKSQFLINGKPFYFHGVNKHEDADIRGKGFDWPLLVKDFNLLRWLGANAFRTSHYPYAEEVMQMCDRYGIVVIDECPGVGLALPQFFNNVSLHHHMQVMEEVVRRDKNHPAVVMWSVANEPASHLESAGYYLKMVIAHTKSLDPSRPVTFVSNSNYAADKGAPYVDVICLNSYYSWYHDYGHLELIQLQLATQFENWYKKYQKPIIQSEYGAETIAGFHQDPPLMFTEEYQKSLLEQYHLGLDQKRRKYVVGELIWNFADFMTEQSPTRVLGNKKGIFTRQRQPKSAAFLLRERYWKIANETRYPHSVAKSQCLENSLFT
percentage of EdU-negative [1, 5]: 5.26 ± 0.26% | percentage of EdU-negative ([1]; protein concentration 0.225 µM): 5.74 ± 0.95% | percentage of EdU-negative [2, 5]: 24.2 ± 0.95% | percentage of EdU-negative ([2]; protein concentration 0.225 µM): 23.4 ± 1.8%

MARILLLFLPGLVAVCAVHGIFMDRLASKKLCADDECVYTISLASAQEDYNAPDCRFINVKKGQQIYVYSKLVKENGAGEFWAGSVYGDGQDEMGVVGYFPRNLVKEQRVYQEATKEVPTTDIDFFCE [Q9NRC9]
percentage of EdU-negative [1, 7]: 5.05 ± 0.39% | percentage of EdU-negative [1, 8]: 5.74 ± 0.68% | percentage of EdU-negative [2, 7]: 24.18 ± 0.24% | percentage of EdU-negative [2, 8]: 27 ± 3.7%

MARLALSPVPSHWMVALLLLLSAEPVPAARSEDRYRNPKGSACSRIWQSPRFIARKRGFTVKMHCYMNSASGNVSWLWKQEMDENPQQLKLEKGRMEESQNESLATLTIQGIRFEDNGIYFCQQKCNNTSEVYQGCGTELRVMGFSTLAQLKQRNTLKDGIIMIQTLLIILFIIVPIFLLLDKDDSKAGMEEDHTYEGLDIDQTATYEDIVTLRTGEVKWSVGEHPGQE
percentage of EdU-negative [1, 5]: 5.71 ± 0.54% | percentage of EdU-negative ([1]; protein concentration 0.225 µM): 8.95 ± 0.22% | percentage of EdU-negative [2, 5]: 25.5 ± 0.14% | percentage of EdU-negative ([2]; protein concentration 0.225 µM): 26.8 ± 0.87%

MARLGNCSLTWAALIILLLPGSLEECGHISVSAPIVHLGDPITASCIIKQNCSHLDPEPQILWRLGAELQPGGRQQRLSDGTQESIITLPHLNHTQAFLSCCLNWGNSLQILDQVELRAGYPPAIPHNLSCLMNLTTSSLICQWEPGPETHLPTSFTLKSFKSRGNCQTQGDSILDCVPKDGQSHCCIPRKHLLLYQNMGIWVQAENALGTSMSPQLCLDPMDVVKLEPPMLRTMDPSPEAAPPQAGCLQLCWEPWQPGLHINQKCELRHKPQRGEASWALVGPLPLEALQYELCGLLPATAYTLQIRCIRWPLPGHWSDWSPSLELRTTERAPTVRLDTWWRQRQLDPRTVQLFWKPVPLEEDSGRIQGYVVSWRPSGQAGAILPLCNTTELSCTFHLPSEAQEVALVAYNSAGTSRPTPVVFSESRGPALTRLHAMARDPHSLWVGWEPPNPWPQGYVIEWGLGPPSASNSNKTWRMEQNGRATGFLLKENIRPFQLYEIIVTPLYQDTMGPSQHVYAYSQEMAPSHAPELHLKHIGKTWAQLEWVPEPPELGKSPLTHYTIFWTNAQNQSFSAILNASSRGFVLHGLEPASLYHIHLMAASQAGATNSTVLTLMTLTPEGSELHIILGLFGLLLLLTCLCGTAWLCCSPNRKNPLWPSVPDPAHSSLGSWVPTIMEEDAFQLPGLGTPPITKLTVLEEDEKKPVPWESHNSSETCGLPTLVQTYVLQGDPRAVSTQPQSQSGTSDQVLYGQLLGSPTSPGPGHYLRCDSTQPLLAGLTPSPKSYENLWFQASPLGTLVTPAPSQEDDCVFGPLLNFPLLQGIRVHGMEALGSF
percentage of EdU-negative [1, 9]: 5.21 ± 0.22% | percentage of EdU-negative [1, 10]: 10.7 ± 1.1% | percentage of EdU-negative [2, 9]: 27.8 ± 0.38% | percentage of EdU-negative [2, 10]: 29.5 ± 3%

MARMGLAGAAGRWWGLALGLTAFFLPGVHSQVVQVNDSMYGFIGTDVVLHCSFANPLPSVKITQVTWQKSTNGSKQNVAIYNPSMGVSVLAPYRERVEFLRPSFTDGTIRLSRLELEDEGVYICEFATFPTGNRESQLNLTVMAKPTNWIEGTQAVLRAKKGQDDKVLVATCTSANGKPPSVVSWETRLKGEAEYQEIRNPNGTVTVISRYRLVPSREAHQQSLACIVNYHMDRFKESLTLNVQYEPEVTIEGFDGNWYLQRMDVKLTCKADANPPATEYHWTTLNGSLPKGVEAQNRTLFFKGPINYSLAGTYICEATNPIGTRSGQVEVNITEFPYTPSPPEHGRRAGPVPTAIIGGVAGSILLVLIVVGGIVVALRRRRHTFKGDYSTKKHVYGNGYSKAGIPQHHPPMAQNLQYPDDSDDEKKAGPLGGSSYEEEEEEEEGGGGGERKVGGPHPKYDEDAKRPYFTVDEAEARQDGYGDRTLGYQYDPEQLDLAENMVSQNDGSFISKKEWYV
percentage of EdU-negative [1, 5]: 4.56 ± 1.1% | percentage of EdU-negative ([1]; protein concentration 0.225 µM): 4.77 ± 0.62% | percentage of EdU-negative [2, 5]: 25.4 ± 4.4% | percentage of EdU-negative ([2]; protein concentration 0.225 µM): 23.9 ± 2.4%

— the supplement of paper PMC11316812
